Results as given in patent US8536230B2, “Methods for regulating gelation of polysaccharide solutions and uses thereof” (University of Virginia Patent Foundation, priority 2006, dated 2013).

Test: In vitro release of FITC-dextran / FITC-albumin from chitosan-AHP gels in PBS
Format: physicochemical
Details: FITC albumin loaded (1, 2, and 3%) gels, PBS 37° C.
Method: FITC dextran loaded samples (0.5×1 cm) were placed in histology cups and incubated in 50 mL PBS at 37° C. in a shaking water bath. At predetermined time points, 5 mL of the release media was removed and replenished with 5 mL of PBS. The FITC dextran concentration was determined spectrophotometrically and the percentage cumulative release was calculated. The three groups include 1% dextran, 0.5% dextran, and 0.5% dextran diluted. (see FIG. 8A).
For FITC-dextran loading, appropriate amounts (0.5, 1, and 5% w/v) of FITC-dextrans were dissolved in chitosan-AHP solutions. The respective dextran loaded solutions were poured into petri dishes and allowed to set at 37° C. for 12 h. Circular discs (8 mm diameter) were bored from the thermo-gelled films for in vitro release studies. […] The FITC-dextran concentration in the release media were determined spectrophotometrically at 491 nm and the percentage cumulative release was calculated based on the total FITC-D content. Statistical significance (p<0.05) was determined using one way ANOVA.
Also tested was the release profile of FITC-labeled bovine serum albumin from chitosan-AHP gels represented as the percentage cumulative release. […] The FITC albumin concentration was determined spectrophotometrically and the percentage cumulative release was calculated. […]

Substance: FITC-albumin: FITC-labeled bovine serum albumin loaded in chitosan-AHP gels
- percentage cumulative release profile: significantly lower compared to FITC-Dextran
